Reference: patent publication US20140141019A1

Target: HER3 receptor on cells (HER3-transfected NIH 3T3 fibroblasts; SKBR3 cells; BxPC3 cells) (human) (UniProt P21860)
Assay: flow cytometry competition on SKBR3 cells; HRG varied against anti-HER3 antibody (H4B-121, control antibody D) at its 50% maximal binding concentration

Substance “heregulin (from UniProt Q02297 177-241) (ligand)” has an IC50 of 2.5 nM.
